Test results reported in US20180344812A1 (Scripps Research, published 2018).
Where two headings read alike, the source gives them in different places. Bridges are numbered along the chain shown (N, C = ends). Where no end group is shown, it is not given here. [ ]: non-standard residue; d: D form. L1 = C4 bis(bromoacetamide) staple without lipid; L3 = myristic acid-PEG-PEG-ornithine staple; L5 = C18 diacid-Lys-PEG2-ornithine staple; L2 = myristic acid-PEG-ornithine staple; L6 = made as L5 but on Rink amide resin

T1: human Glucose-dependent insulinotropic polypeptide receptor (GIPR) (human, UniProt P48546 22-466)
T1 sequence (looked up): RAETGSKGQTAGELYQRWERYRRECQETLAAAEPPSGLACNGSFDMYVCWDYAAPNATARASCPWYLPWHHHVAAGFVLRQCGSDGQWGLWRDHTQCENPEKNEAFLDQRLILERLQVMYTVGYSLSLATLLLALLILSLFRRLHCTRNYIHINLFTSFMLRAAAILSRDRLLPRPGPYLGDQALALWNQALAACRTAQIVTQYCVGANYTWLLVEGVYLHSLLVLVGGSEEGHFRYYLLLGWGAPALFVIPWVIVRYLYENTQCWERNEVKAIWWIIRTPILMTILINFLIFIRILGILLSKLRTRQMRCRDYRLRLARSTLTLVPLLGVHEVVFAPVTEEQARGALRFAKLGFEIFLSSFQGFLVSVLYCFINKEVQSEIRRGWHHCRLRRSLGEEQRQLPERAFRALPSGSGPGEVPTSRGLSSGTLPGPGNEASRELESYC

T2: human Glucagon-like peptide 2 receptor (GLP-2R) (human, UniProt O95838 1-553)
T2 sequence (looked up): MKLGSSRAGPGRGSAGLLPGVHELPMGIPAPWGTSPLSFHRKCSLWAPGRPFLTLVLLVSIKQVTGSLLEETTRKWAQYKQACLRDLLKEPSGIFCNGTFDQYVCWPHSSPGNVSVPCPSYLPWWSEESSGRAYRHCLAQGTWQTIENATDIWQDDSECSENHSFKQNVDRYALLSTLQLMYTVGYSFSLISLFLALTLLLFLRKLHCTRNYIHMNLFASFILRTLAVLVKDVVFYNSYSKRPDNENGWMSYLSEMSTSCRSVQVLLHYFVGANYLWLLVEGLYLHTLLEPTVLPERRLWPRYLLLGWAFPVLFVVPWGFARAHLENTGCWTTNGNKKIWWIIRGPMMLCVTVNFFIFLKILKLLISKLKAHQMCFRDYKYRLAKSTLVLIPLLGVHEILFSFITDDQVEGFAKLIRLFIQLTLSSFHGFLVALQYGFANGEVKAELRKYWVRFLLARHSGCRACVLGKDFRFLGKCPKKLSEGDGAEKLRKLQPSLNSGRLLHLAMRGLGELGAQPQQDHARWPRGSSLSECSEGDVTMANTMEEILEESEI


Columns and labels:
Assay in all cases: cell-based or functional assay
[1] = molecular target: T3, human glucagon-like peptide 1 receptor (GLP-1R) (human, UniProt P43220 24-463)
[2] = molecular target: T1, human Glucose-dependent insulinotropic …
[3] = molecular target: T3, human glucagon-like peptide 1 receptor …; remark: listed apart in the source
[4] = molecular target: T1, human Glucose-dependent insulinotropic …; remark: listed apart in the source
[5] = molecular target: human glucagon receptor (GCGR) (human, UniProt P47871 26-477)
Sequence of human glucagon receptor (GCGR) (P47871 26-477): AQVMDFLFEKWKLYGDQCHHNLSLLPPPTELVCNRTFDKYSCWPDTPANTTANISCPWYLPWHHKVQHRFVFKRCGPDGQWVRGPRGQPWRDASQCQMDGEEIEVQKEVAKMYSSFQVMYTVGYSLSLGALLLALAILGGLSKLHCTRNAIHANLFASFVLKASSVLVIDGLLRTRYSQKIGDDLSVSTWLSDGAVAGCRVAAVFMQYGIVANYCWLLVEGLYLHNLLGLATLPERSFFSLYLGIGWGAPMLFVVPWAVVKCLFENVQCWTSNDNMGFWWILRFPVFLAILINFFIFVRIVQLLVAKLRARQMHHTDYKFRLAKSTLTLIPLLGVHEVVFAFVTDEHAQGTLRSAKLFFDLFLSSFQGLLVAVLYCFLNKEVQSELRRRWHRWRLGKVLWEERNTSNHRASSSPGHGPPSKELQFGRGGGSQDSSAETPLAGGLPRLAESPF

[6] = molecular target: T2, human Glucagon-like peptide 2 receptor …

| Binder | EC50, CRE-luciferase reporter in HEK293-GLP-2R-CRE cells [6] [nM] | other results |
| --- | --- | --- |
| Y[dA]EGTFTSDYSIYLDKCAAKEFVCWLLAGGPSSGAPPPSK (linker 17-24 via L3) [mTA 41: GLP-1/GIP (A) and L3] |  | EC50, CRE-luciferase reporter in HEK293-GLP-1R-CRE cells [1]: 0.02 nM; EC50, CRE-luciferase reporter in HEK293-GIPR-CRE cells [2]: 0.06 nM |
| Y[dA]EGTFTSDYSIYLDKCAAKEFVCWLLAGGPSSGAPPPSK (linker 17-24 via L1) [mTA 40: GLP-1/GIP (A) and L1] |  | EC50, CRE-luciferase reporter in HEK293-GLP-1R-CRE cells [1]: 0.02 nM; EC50, CRE-luciferase reporter in HEK293-GIPR-CRE cells [2]: 0.02 nM |
| Y[dA]EGTFISDYSKYLDECAAKEFICWLMNTKRNRNNIA (linker 17-24 via L1) [mTA 44: GLP-1/GIP/Glucagon (A) and L1] |  | EC50, CRE-luciferase reporter in HEK293-GLP-1R-CRE cells [3]: 9.7 nM; EC50, CRE-luciferase reporter in HEK293-GIPR-CRE cells [4]: 0.04 nM; EC50, CRE-luciferase reporter in HEK293-GCGR-CRE cells [5]: 1.6 nM |
| HGDGSFSDEMNTILDNCAARDFICWLIQTKITDPSSGAPPPS (linker 17-24 via L1) [mTA 59: GLP-2 (H) and L1] | 0.064 |  |
| HGDGSFSDEMCTILDNLCARDFINWLIQTKITDPSSGAPPPS (linker 11-18 via L5; also: staple L5 carries C18 diacid-Lys-PEG2-ornithine lipid) [mTA 70: GLP-2 (J) and L5] | 8.8 |  |
| HGDGSFSDCMNTILDCLAARDFINWLIQTKITDPSSGAPPPS (linker 9-16 via L3; also: staple L3 carries myristic acid-PEG-PEG-ornithine lipid) [mTA 65: GLP-2 (I) and L3] | 0.06 |  |
| HGDGSFSDEMNTILDNCAARDFICWLIQTKITDPSSGAPPPS (linker 17-24 via L2; also: staple L2 carries myristic acid-PEG-ornithine lipid) [mTA 60: GLP-2 (H) and L2] | 0.068 |  |
| HGDGSFSDEMNTILDNCAARDFICWLIQTKITDPSSGAPPPS (linker 17-24 via L6) [mTA 64: GLP-2 (H) and L6] | 0.7 |  |
| HGDGSFSDEMNTILDNCAARDFICWLIQTKITDPSSGAPPPS (linker 17-24 via L3; also: staple L3 carries myristic acid-PEG-PEG-ornithine lipid) [mTA 61: GLP-2 (H) and L3] | 0.068 |  |
| HGDGSFSDEMNTILDNCAARDFICWLIQTKITDPSSGAPPPS (linker 17-24 via L5; also: staple L5 carries C18 diacid-Lys-PEG2-ornithine lipid) [mTA 63: GLP-2 (H) and L5] | 2.66 |  |
| HGDGSFSDEMCTILDNLCARDFINWLIQTKITDPSSGAPPPS (linker 11-18 via L3; also: staple L3 carries myristic acid-PEG-PEG-ornithine lipid) [mTA 68: GLP-2 (J) and L3] | 0.028 |  |
| HGDGSFSDCMNTILDCLAARDFINWLIQTKITDPSSGAPPPS (linker 9-16 via L5; also: staple L5 carries C18 diacid-Lys-PEG2-ornithine lipid) [mTA 67: GLP-2 (I) and L5] | 3.1 |  |
| Y[dA]EGTFTSDYSIYLDKCAAKEFVCWLLAGGPSSGAPPPSK (linker 17-24 via L5) [mTA 43: GLP-1/GIP (A) and L5] |  | EC50, CRE-luciferase reporter in HEK293-GLP-1R-CRE cells [1]: 0.5 nM; EC50, CRE-luciferase reporter in HEK293-GIPR-CRE cells [2]: 1.1 nM |
| HGDGSFSDCMNTILDCLAARDFINWLIQTKITD (linker 9-16 via L5) [mTA 56: GLP-2 (F) and L5] | 0.77 |  |
| HGDGSFSDEMCTILDNLCARDFINWLIQTKITD (linker 11-18 via L1) [mTA 57: GLP-2 (G) and L1] | 0.046 |  |
| HGDGSFSDEMCTILDNLCARDFINWLIQTKITD (linker 11-18 via L5) [mTA 58: GLP-2 (G) and L5] | 7.98 |  |
